Reference: patent publication US20260242515A1 (DUALITY BIOLOGICS SHANGHAI, published 2026)

T1: ADAM9 on human tumor cells (LS174T, HepG2, Calu-3, Colo205) (human, UniProt Q13443 29-819)
T1 sequence (looked up): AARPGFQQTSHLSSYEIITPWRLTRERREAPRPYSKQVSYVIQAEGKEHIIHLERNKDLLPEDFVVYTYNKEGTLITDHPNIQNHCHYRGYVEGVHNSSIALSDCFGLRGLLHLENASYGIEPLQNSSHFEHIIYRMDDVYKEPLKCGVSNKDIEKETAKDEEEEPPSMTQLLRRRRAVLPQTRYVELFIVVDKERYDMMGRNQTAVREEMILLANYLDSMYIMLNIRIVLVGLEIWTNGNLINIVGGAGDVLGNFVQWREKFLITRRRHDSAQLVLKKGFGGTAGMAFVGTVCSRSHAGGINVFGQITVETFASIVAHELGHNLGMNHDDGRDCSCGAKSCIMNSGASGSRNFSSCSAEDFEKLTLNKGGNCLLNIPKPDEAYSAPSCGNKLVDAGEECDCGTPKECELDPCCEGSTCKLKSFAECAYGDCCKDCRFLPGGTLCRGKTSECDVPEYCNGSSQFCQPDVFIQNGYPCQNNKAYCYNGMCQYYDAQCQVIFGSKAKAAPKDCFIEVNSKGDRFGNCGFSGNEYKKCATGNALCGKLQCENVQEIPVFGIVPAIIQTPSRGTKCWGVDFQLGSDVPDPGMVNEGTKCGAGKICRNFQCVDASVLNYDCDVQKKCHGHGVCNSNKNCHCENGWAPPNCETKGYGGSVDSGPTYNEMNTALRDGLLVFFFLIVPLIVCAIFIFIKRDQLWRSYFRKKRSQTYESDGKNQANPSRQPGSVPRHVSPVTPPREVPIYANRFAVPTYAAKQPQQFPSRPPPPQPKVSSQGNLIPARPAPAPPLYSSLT

T2: Human ADAM9 protein (ACROBiosystems, Cat. No. AD9-H52H7) (human, UniProt Q13443 29-697)
T2 construct: Bought protein; also called Human ADAM-His protein; human ADAM9 antigen; not shown: His tag
T2 sequence (looked up): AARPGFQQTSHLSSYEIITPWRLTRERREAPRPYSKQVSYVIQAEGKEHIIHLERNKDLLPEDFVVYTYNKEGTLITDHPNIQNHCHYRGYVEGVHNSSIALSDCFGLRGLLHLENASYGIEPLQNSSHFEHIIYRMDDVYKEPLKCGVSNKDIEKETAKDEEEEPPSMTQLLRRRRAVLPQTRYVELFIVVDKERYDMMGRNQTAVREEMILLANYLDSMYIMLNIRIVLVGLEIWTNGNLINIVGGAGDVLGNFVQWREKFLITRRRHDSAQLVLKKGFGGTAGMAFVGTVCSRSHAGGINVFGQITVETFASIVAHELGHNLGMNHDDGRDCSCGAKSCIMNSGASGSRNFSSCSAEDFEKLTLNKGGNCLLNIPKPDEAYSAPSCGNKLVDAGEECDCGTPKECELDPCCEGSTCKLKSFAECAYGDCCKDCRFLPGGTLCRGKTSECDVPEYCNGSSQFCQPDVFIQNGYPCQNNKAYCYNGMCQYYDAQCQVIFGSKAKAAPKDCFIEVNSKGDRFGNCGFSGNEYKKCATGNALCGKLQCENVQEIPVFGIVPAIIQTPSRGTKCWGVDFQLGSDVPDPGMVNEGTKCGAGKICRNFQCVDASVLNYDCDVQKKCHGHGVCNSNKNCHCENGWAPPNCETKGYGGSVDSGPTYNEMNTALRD


Legend:
[1] = target: T1, ADAM9 on human tumor cells (LS174T, …); assay: cell-based or functional assay
[2] = target: T2, Human ADAM9 protein (ACROBiosystems, …); assay: SPR (Biacore 8K), antibody captured by anti-human Fc on CM5, ADAM9 as analyte
Description: Chip preparation: The mouse anti-human IgG (Fc) antibody (Cat. No. 29234600, Cytiva) was diluted to 25 μg/mL in immobilization buffer (10 mM sodium acetate, pH 5.0), specifically by adding 950 μL of the immobilization buffer to 50 μL of the mouse anti-human IgG (Fc) antibody. The dilution was used for immobilization in eight channels. First, the surface of the CM5 chip was activated with 400 mM EDC and 100 mM NHS at a flow rate of 10 μL/min for 420 seconds. Then, 25 μg/mL of the mouse anti-human IgG (Fc) antibody was injected into the test channels at a flow rate of 10 μL/min for approximately 360 seconds, with the level of immobilization at approximately 7000 to 14000 RU. Finally, the chip was blocked with 1 M ethanolamine at a flow rate of 10 μL/min for 420 seconds. The reference channels underwent the same procedures as the test channels.
Ligand capture: Antibodies Ab10, Ab15, Ab16, and hMAB-A (2I.2) were diluted to 4 μg/mL in running buffer (containing 10 mM N-(2-hydroxyethyl)piperazine-N-2-ethanesulfonic acid (HEPES), 150 mM sodium chloride (NaCl), 3 mM ethylenediaminetetraacetic acid (EDTA), 0.005% Tween-20, pH adjusted to 7.4) and injected into the test channels for human IgG (Fc) capture at a flow rate of 10 μL/min at approximately 200 RU. No ligand capture was performed in the reference channels.
Analyte multi-cycle analysis: Human and cynomolgus ADAM9 proteins (human ADAM9 protein purchased from ACRO, Cat. No. AD9-H52H7; monkey ADAM9 protein purchased from ACRO, Cat. No. AD9-C52H7) were diluted 2-fold in running buffer (Table 10). The diluted human or cynomolgus ADAM9 protein was sequentially injected into the test channels and the reference channels at a flow rate of 30 μL/min, with corresponding association and dissociation times. Both the association and dissociation steps were performed in the running buffer. After each concentration analysis, the chip was regenerated with 3 M magnesium chloride at a flow rate of 20 μL/min for 30 seconds to wash away the ligand and any undissociated analyte. For the next concentration analysis, the test channels required re-capture of the same amount of ligand.

Row | EC50 for internalization [1] [nM] | Maximum internalization rate (%) [1] [%] | Kd [2] [nM] | koff [2] [s⁻¹] | kon [2] [M⁻¹ s⁻¹] | Binder
1 | 0.17 | 81.8 | 4.03 | 0.000697 | 173000 | Ab15 (antibody, human IgG1, kappa, V domains shown, Humanized anti-ADAM9 IgG1/kappa; also called Ab15-V (variable regions)) VH: QVQLQQPGAELKKPGASVKVSCKASGFTFPLYWMNWVRQRPGRGLEWIGRIIPIFGHTKYNEKFKDRATMTADESSSTAYMELSSLTSEDSAVYYCARGGYYYYPREGFLDYWGQGTSVTVSS VL: DIVMTQSPDSLSVSPGERATINCRSSQSVDYSGDSYMNWYQQKPGQSPRLLIYAASDRESGVPDRFSGSGSGTDFTLKISNVEEEDAATYYCQQSREDPFTFGQGTRVEIKR
2 | 0.12 | 83.3 | 5.01 | 0.000816 | 163000 | Ab16 (antibody, human IgG1, kappa, V domains shown, Humanized anti-ADAM9 IgG1/kappa; also called Ab16-V (variable regions)) VH: QVQLQQPGTEVVKPGASVKLSCKASGFTFPLYWMHWVRQRPGRGLEWIGRIIPIFGHTKYNEKFKNKATLTADESSSTAYMELRSLTSDDSAVYYCARGGYYYYPREGFLDYWGQGTSVTVSS VL: DIVMTQSPASLSVSPGERASISCRSSQSVDYSGDSYMNWYQQKPGQSPRLLIYAASDRESGVPDRFSGSGSGTDFTLKISRVEEEDAGTYYCQQSREDPFTFGQGTKVDIKR
